Laboratory results from patent US8673313B2, “Cell penetrating peptides and its use fused to biomolecules with therapeutic action” (priority 2007, dated 2014).

Legend:
[1] = system: cellular immune response against the antigen E7 de HPV-16; assay: ELISPOT anti-IFN-γ of splenocytes of immunized mice; type: in vivo, mice C57BL/6; details: 30 μg s.c., 2 doses every 14 days, without adjuvant
Protocol: In order to evaluate the cellular immune response against the antigen E7 de HPV-16, 4 groups of 3 mice females C57BL/6, from 6 to 8 weeks of born, received 2 doses of immunogens. The group 1 was immunized with the 30 μg of the recombinant protein LALF-E7; group 2 with the 30 μg of the recombinant protein E7; group 3 with 8 μg of synthetic peptide LALF and group 4 with PBS. The immunizations were made of subcutaneous way in the flank of the animal with volumes of 0.2 mL and without adjuvant. Every 14 days were administered two doses. Seven days after the second immunization, the mice were sacrificed by break-up of the cervical and the splenocytes were removed aseptically for their later analysis in a test of ELISPOT anti-gamma interferon (anti-IFN-γ). The cellular suspensions of the animals by each group met in pool and they were homogenized smoothly. […]
The test for the determination of the IFN-γ secretion was made as described previously (Vazquez-Blomquist D. et al. (2002) Induction of a strong HIV-specific CD8+ T cell response in mice using a fowlpox virus vector expressing an HIV-1 multi-CTL-epitope polypeptide. Viral Immunol. 5(2):337-356). […] After this time, the surviving cells counted and were used for determinations of ELISPOT under the same conditions.
The results were expressed as a number of spot forming cells (SFC) per 10^6 splenocytes. […]

J774 cells = assay: Western blot: internalization of the cargo protein E7 to the cell; type: cell-based; details: 25 μM protein, J774, 4 hours at 37° C., FIG. 5
Protocol: The cells J774 grown overnight at 37° C. and 5% of CO2 with RPMI 1640, 10% inactivated calf fetal serum and 2 mM de glutamine. After that, the cell were aliquoted in tubes with 5×10^6 cells each and incubated with 25 μM of fusion protein LALF-E7, 25 μM of protein E7 and PBS during 4 hours at 37° C. The sedimentation of the cells was made by a centrifugation to 1000 rpm by 10 minutes. Wash pellet in three changes of PBS. Cells were ruptured in 100 μL of RIPA buffer (Promega) mixed in vortex per 10 second and 2 min in ice. The sedimentation of the broken cells was made by a centrifugation to 12000 rpm by 15 minutes. Protein concentration was determined to the cell extract and rum 10 μg of total protein in 15% polyacrilamide gel. Subsequently the gel was transferred to a nitrocellulose membrane. The membrane was incubated for 2 hours at room temperature with an IgG goat polyclonal antibody anti-E7 HPV 16 (Santa Cruz) diluted in PBS (1:100). Wash in three changes of PBS. Subsequently, the membrane was incubated for 45 minutes at room temperature and in a dark room with an anti-goat IgG peroxidase conjugate (Sigma) diluted in PBS (1:5000). Wash in three changes of PBS. Finally the ECL system from Amersham Pharmacia Biotech was used.

B1: LALF-E7: recombinant fusion of CPP LALF to E7 protein of HPV 16, cysteine per glycine in Rb site (SEQ ID N0. 9 y 10) (protein)
chain: MAEFHYRIKPTFRRLKWKYKGKFWKASHGDTPTLHEYMLDLQPETTDLYGYEQLNDSSEEEDEIDGPAGQAEPDRAHYNIVTFCCKCDSTLRLCVQSTHVDIRTLEDLLMGTLGIVCPICSQKPGSRAHHHHHH
modifications: Artificial Sequence Description Protein fusion CPP LALF-E7
For B1, the “T CD8+ lymphocyte response” value [1] was “effective response of T CD8^+ lymphocytes”, the “number of SFC (IFN-γ secretor cells) relative to the groups immunized with VSSP and PBS” value ([1]; splenocytes 7 days after second immunization, FIG. 9) was roughly 8 times and the “detection of protein in cell extract by anti-E7 antibody (Western blot)” value (J774 cells) was “recognized by the anti-E7 antibody”.
